Measurements taken from US7951356B1, “Tissue factor compositions and kits for coagulation and tumor treatment” (Board of Regents, The University of Texas System, priority 1997, dated 2011).

System: citrated mouse plasma
Test: In vitro coagulation assay: tTF constructs localized on A20 lymphoma cells via bispecific antibody B21-2/10H10
Type: cell-based
Conditions: for coagulation-inducing activity once localized on A20 cells via B21-2/10H10, in words (compared with tTF219): plasma coagulation; for concentration applied to the cells at which plasma coagulated in 50 seconds: A20 cells coated with B21-2/10H10, FIG. 5-8, 15
Experimental: This assay was used to verify that tTF, various derivatives and mutants thereof, and immunoglobulin-tTF conjugates acquire coagulation inducing activity once localized at a cell surface. A20 lymphoma cells (I-A^d positive) (2×10^6 cells/ml, 50 μl) were incubated for 1 h at room temperature with a bispecific antibody (50 μg/ml, 25 μl) consisting of a Fab′ arm of the B21-2 antibody directed against I-A^d linked to a Fab′ arm of the 10H10 antibody directed against a non-inhibitory epitope on tTF. The cells were washed at room temperature and varying concentrations of tTF, derivatives or mutants thereof, or immunoglobulin-tTF conjugates were added for 1 hour at room temperature. The bispecific antibody captures the tTF or tTF linked to immunoglobulin, bringing it into close approximation to the cell surface, where coagulation can proceed.
The cells were washed again at room temperature, resuspended in 75 μl of PBS and warmed to 37° C. […] The time for the first fibrin strands to form was recorded. Clotting time was plotted against tTF concentration and curves compared with standard curves prepared using standard tTF219 preparations.

Molecule	coagulation-inducing activity once localized on A20 cells via B21-2/10H10, in words (compared with tTF219)	concentration applied to the cells at which plasma coagulated in 50 seconds [nM]
H6—N′-cys-tTF219: tTF219 with (His)6 and a Cys in front of the N′-terminus; SEQ ID NO:2 (protein) HHHHHHAMALVPRGSCGTTNTVAAYNLTWKSTNFKTILEWEPKPVNQVYTVQISTKSGDWKSKCFYTTDTECDLTDEIVKDVKQTYLARVFSYPAGNVESTGSAGEPLYENSPEFTPYLETNLGQPTIQSFEQVGTKVNVTVEDERTLVRRNNTFLSLRDVFGKDLIYTLYYWKSSSSGKKTAKTNTNEFLIDVDKGENYCFSVQAVIPSRTVNRKSTDSPVECMGQEKGEFRE	as active as tTF	–
“standard” tTF: “standard” tTF219 preparation obtained from Dr. Thomas Edgington (The Scripps Research Institute) (protein) GSGTTNTVAAYNLTWKSTNFKTILEWEPKPVNQVYTVQISTKSGDWKSKCFYTTDTECDLTDEIVKDVKQTYLARVFSYPAGNVESTGSAGEPLYENSPEFTPYLETNLGQPTIQSFEQVGTKVNVTVEDERTLVRRNNTFLSLRDVFGKDLIYTLYYWKSSSSGKKTAKTNTNEFLIDVDKGENYCFSVQAVIPSRTVNRKSTDSPVECMGQEKGEFRE	–	3
H6-tTF219-cys-C′: tTF219 with (His)6 and a Cys after amino acid 219; SEQ ID NO:3 (protein) HHHHHHAMALVPRGSGTTNTVAAYNLTWKSTNFKTILEWEPKPVNQVYTVQISTKSGDWKSKCFYTTDTECDLTDEIVKDVKQTYLARVFSYPAGNVESTGSAGEPLYENSPEFTPYLETNLGQPTIQSFEQVGTKVNVTVEDERTLVRRNNTFLSLRDVFGKDLIYTLYYWKSSSSGKKTAKTNTNEFLIDVDKGENYCFSVQAVIPSRTVNRKSTDSPVECMGQEKGEFREC	as active as tTF	3
H6-tTF220-cys-C′: tTF219 mutated to carry Ile-Cys after amino acid 219; SEQ ID NO:6 (protein) HHHHHHAMALVPRGSGTTNTVAAYNLTWKSTNFKTILEWEPKPVNQVYTVQISTKSGDWKSKCFYTTDTECDLTDEIVKDVKQTYLARVFSYPAGNVESTGSAGEPLYENSPEFTPYLETNLGQPTIQSFEQVGTKVNVTVEDERTLVRRNNTFLSLRDVFGKDLIYTLYYWKSSSSGKKTAKTNTNEFLIDVDKGENYCFSVQAVIPSRTVNRKSTDSPVECMGQEKGEFREIC	as active as tTF219	0.5
tTF220-cys-C′: tTF220-cys-C′, tested beside H6-tTF220-cys-C′ (FIG. 6) (protein) GSGTTNTVAAYNLTWKSTNFKTILEWEPKPVNQVYTVQISTKSGDWKSKCFYTTDTECDLTDEIVKDVKQTYLARVFSYPAGNVESTGSAGEPLYENSPEFTPYLETNLGQPTIQSFEQVGTKVNVTVEDERTLVRRNNTFLSLRDVFGKDLIYTLYYWKSSSSGKKTAKTNTNEFLIDVDKGENYCFSVQAVIPSRTVNRKSTDSPVECMGQEKGEFREIC	as active as tTF219	0.5
